US20220324977A1 (BEIJING SINOGENE BIOTECHNOLOGY, published 2022)

Experiments:
[1] = biological target: T1, canine PD-1 protein amino acids 25-168 with His tag (canine, UniProt A0A090BAM7 25-168); assay: kinetics, PD-1 His 1000.0 nM
T1 construct: Expressed in Expi293F cells; used as immunogen and as antigen in ELISA and Octet; also called PD-1 His

[2] = biological target: T2, PD1 on the surface of T cells (canine PBMC stimulated with ConA) (canine, UniProt A0A090BAM7 25-288); assay: flow cytometry, ConA-stimulated canine PBMC, CD3-FITC and PE-labeled anti-canine IgG
T2 construct: also called canine PD-1
Method: (§1) The cells were stimulated by 0.5 μg/mL ConA for 3 days, and collected. PBMC was incubated with canine-anti-CD3-FITC and caninized monoclonal antibodies C1, C3 and C11 respectively. Then the cells were incubated again with PE-labeled canine-IgG antibody. […] Moreover, the results also indicate that the caninized monoclonal antibodies C1, C3 and C11 have potential blocking effect on the PD1/PD-L1 signaling pathway, and thus have protective effect on the function of T cells (see FIG. 14).

[3] = biological target: T1, canine PD-1 protein amino acids 25-168 …; assay: kinetics, PD-1 His 333.3 nM
[4] = biological target: T1, canine PD-1 protein amino acids 25-168 …; assay: kinetics, PD-1 His 12.4 nM
[5] = biological target: T1, canine PD-1 protein amino acids 25-168 …; assay: kinetics, PD-1 His 111.3 nM
[6] = biological target: T1, canine PD-1 protein amino acids 25-168 …; assay: kinetics, global fit over the PD-1 His series 1.1-1000.0 nM
[7] = biological target: T1, canine PD-1 protein amino acids 25-168 …; assay: kinetics, global fit over PD-1 His 1.1-1000 nM
[8] = biological target: T1, canine PD-1 protein amino acids 25-168 …; assay: kinetics, PD-1 His 1.1 nM
[9] = biological target: T1, canine PD-1 protein amino acids 25-168 …; assay: kinetics, PD-1 His 37.3 nM
[10] = biological target: T2, PD1 on the surface of T cells (canine …); assay: flow cytometry on ConA-stimulated canine PBMC, stained with anti-CD3-FITC and the caninized antibody, detected with PE-labeled anti-canine IgG; quadrant plot FITC against PE; no unstained or isotype control shown
Method: as §1

[11] = biological target: T1, canine PD-1 protein amino acids 25-168 …; assay: kinetics, PD-1 His 4.0 nM

T1 sequence (A0A090BAM7 entry or part of it limits assumed): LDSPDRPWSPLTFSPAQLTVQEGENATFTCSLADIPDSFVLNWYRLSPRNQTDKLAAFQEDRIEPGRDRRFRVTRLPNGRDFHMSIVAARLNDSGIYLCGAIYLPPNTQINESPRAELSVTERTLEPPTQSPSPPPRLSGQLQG
T2 sequence (A0A090BAM7 entry or part of it limits assumed): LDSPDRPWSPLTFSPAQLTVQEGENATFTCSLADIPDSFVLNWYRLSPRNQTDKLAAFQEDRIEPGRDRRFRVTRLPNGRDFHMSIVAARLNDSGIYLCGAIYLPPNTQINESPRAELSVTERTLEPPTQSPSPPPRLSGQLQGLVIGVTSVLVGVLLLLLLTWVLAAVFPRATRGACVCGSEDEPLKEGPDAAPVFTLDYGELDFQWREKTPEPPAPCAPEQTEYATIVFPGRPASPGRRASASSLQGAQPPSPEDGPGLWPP

| Binder | Kd [1] [pM] | Response (nm) [1] [nm] | koff [1] [s⁻¹] | kon [1] [M⁻¹ s⁻¹] | PD1 positive cells in T cells [2] [%] | Kd [3] [pM] | Response (nm) [3] [nm] | koff [3] [s⁻¹] | kon [3] [M⁻¹ s⁻¹] | Response (nm) [4] [nm] | Kd [5] [pM] | Response (nm) [5] [nm] | koff [5] [s⁻¹] | kon [5] [M⁻¹ s⁻¹] | Kd [6] [pM] | koff [6] [s⁻¹] | kon [6] [M⁻¹ s⁻¹] | Kd [7] [pM] | koff [7] [s⁻¹] | kon [7] [M⁻¹ s⁻¹] | also measured |
| --- | --- | --- | --- | --- | --- | --- | --- | --- | --- | --- | --- | --- | --- | --- | --- | --- | --- | --- | --- | --- | --- |
| caninized monoclonal antibody C3 (antibody, V domains shown, Variable domains as for M3; also called C3(36.39); 36.39) VH: EVRLQQSGAELVKPGASVKLSCTASGFNIKDTYLHWLKERPEQGLEWIGRIDPAIGNTRYDPKFQVKATITADTSSNTAYLQLSSLTSEDSAVYYCARGFYGMDYWGQGTSVTVSS VL: QIVLTQSPAIMSASPGEKVTMTCSASSSVSYMFWYQQKPGSSPRLWIYDTSNLVSGVPARFSGSRSGTSYSLTISSMEAEDAATYYCQQYSGYPYTFGGGTKLEIKR | < 1 | 0.007 | < 1e-07 | 330 | 96.2 | < 1 | 0.01 | < 1e-07 | 1760 | 0.005 | < 1 | 0.026 | < 1e-07 | 14700 | < 1 | < 1e-07 | 626 | < 1 | < 1e-07 | 626 | Response (nm) [8]: 0.002 nm; Kd [9]: < 1 pM; Response (nm) [9]: 0.017 nm; koff [9]: < 1e-07 s⁻¹; kon [9]: 40500 M⁻¹ s⁻¹; % of cells in quadrant Q2 (Comp-FITC-A positive, Comp-PE-A positive) [10]: 53.1%; Response (nm) [11]: 0.009 nm |
| caninized monoclonal antibody C11 (antibody, V domains shown, Variable domains as for M11; also called C11(37.40); 37.40) VH: EVQLQQSGAEVVKPGASVKLSCTASGFNIKDTYMHWVKQRPEQGLEWIGRIDPAIGNPKYDPKFQGRATITADTSSNTAYLQLSSLTSEDTAVYYCASGFYAMDCWGQGTSVTVSS VL: QIVLTQSPAIMSASPGEKVTMTCSASSSITYMFWYQQKPGSSPRLWIYDTSNLVSGVPARFSGSKSGTSYSLTITSMEAEDAATYYCQQYSGYPSTFGSGTKLEIKR | < 1 | 0.009 | < 1e-07 | 1470 | 96.7 | < 1 | 0.012 | < 1e-07 | 947 | 0.008 | < 1 | 0.025 | < 1e-07 | 23800 | < 1 | < 1e-07 | 1190 | < 1 | < 1e-07 | 1190 | Kd [4]: < 1 pM; koff [4]: < 1e-07 s⁻¹; kon [4]: 50100 M⁻¹ s⁻¹; Response (nm) [8]: -0.003 nm; Kd [9]: < 1 pM; Response (nm) [9]: 0.015 nm; koff [9]: < 1e-07 s⁻¹; kon [9]: 67600 M⁻¹ s⁻¹; % of cells in quadrant Q2 (Comp-FITC-A positive, Comp-PE-A positive) [10]: 62.6%; Response (nm) [11]: 0.004 nm |
